Data from paper PMC4839733.

Molecular target: SP-VSVG-hGLP-1RΔN23-GFP V36A (human) (UniProt P43220)
Chain of UniProt P43220 (P43220 24-463 V36A): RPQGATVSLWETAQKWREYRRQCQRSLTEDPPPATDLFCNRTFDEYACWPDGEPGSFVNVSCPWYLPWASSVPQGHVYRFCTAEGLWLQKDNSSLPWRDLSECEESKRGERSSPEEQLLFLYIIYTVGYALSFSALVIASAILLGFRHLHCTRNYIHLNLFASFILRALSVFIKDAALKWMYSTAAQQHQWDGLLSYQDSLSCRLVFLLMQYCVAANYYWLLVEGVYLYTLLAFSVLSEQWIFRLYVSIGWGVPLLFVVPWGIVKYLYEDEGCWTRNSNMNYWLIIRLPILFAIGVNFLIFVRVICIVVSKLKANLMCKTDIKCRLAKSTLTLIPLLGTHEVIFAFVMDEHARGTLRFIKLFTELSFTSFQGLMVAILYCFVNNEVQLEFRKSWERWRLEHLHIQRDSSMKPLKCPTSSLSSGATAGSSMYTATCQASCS

Work on GLP-1 7–37 (liraglutide) (peptide) yielded an agonist induced internalisation of hGLP-1R V36A (cell-surface ELISA with the anti-GLP-1R antibody, HEK293 cells) of 12.4%.
